# Experimental data: US20140242077A1 (AbbVie / Abbott, published 2014)
# T1: LAG3 (human, UniProt P18627 23-525)
# T1 construct: whole, on cells; The intended T-cell surface marker of the LAG3 variable domains
# T1 sequence (looked up): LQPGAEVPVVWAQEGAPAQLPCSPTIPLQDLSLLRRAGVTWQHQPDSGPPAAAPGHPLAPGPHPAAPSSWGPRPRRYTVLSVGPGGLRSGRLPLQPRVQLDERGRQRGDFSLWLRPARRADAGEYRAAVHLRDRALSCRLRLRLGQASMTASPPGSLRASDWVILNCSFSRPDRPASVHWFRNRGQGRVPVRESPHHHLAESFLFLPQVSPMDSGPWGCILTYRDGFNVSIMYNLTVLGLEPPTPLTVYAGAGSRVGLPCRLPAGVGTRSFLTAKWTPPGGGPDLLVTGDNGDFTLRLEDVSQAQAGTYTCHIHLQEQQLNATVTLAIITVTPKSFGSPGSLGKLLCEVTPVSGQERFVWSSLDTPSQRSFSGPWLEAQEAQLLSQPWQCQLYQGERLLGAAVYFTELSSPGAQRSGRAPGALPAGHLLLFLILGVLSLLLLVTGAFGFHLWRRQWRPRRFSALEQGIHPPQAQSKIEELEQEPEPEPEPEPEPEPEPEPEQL
# Columns and labels:
# Assay in all cases: flow cytometry on activated human T-cells
# 4-1BB = target: T2, 4-1BB (human, UniProt Q07011 24-255)
# T2 construct: whole, on cells; The intended T-cell surface marker of the 41BB variable domains; also called CD137; TNFRSF9
# T2 sequence (Q07011 24-255): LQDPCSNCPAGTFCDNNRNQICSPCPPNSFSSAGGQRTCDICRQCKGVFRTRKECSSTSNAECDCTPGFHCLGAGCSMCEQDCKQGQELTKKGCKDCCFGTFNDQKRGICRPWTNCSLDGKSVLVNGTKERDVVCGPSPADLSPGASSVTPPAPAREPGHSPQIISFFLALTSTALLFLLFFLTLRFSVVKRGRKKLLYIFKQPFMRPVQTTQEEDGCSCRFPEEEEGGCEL
# Procedure: (§1) PBMCs were isolated from heparinized leukopaks by use of Ficoll density gradient centrifugation. PBMCs were stimulated overnight with CD2/CD3/CD28 beads from a T-Cell Activation/Expansion Kit (Miltenyi Biotech, Germany) according to the manufacturer's protocol. Activated T-cells were incubated with primary antibody for 1 hour at 4° C., washed in PBS, and then incubated for 30 minutes with fluorescently-labeled secondary anti-Fc specific antibody (Jackson ImmunoResearch, West Grove, Pa.). Activated T-cell samples were analyzed on a FACSCantoII cytometer (BD) and data were analyzed with FlowJo software. Geometric mean fluorescence intensity was compared to DVD-Ig protein concentration by graphing in the GraphPad Prism software package (see FIG. 14).
# LAG3 = target: T1, LAG3
# Procedure: as §1
# PD1 = target: T3, PD1 (human, UniProt Q15116 25-288)
# T3 construct: whole, on cells; The intended T-cell surface marker of the PD1 variable domains; also called programmed cell death protein 1
# T3 sequence (Q15116 25-288): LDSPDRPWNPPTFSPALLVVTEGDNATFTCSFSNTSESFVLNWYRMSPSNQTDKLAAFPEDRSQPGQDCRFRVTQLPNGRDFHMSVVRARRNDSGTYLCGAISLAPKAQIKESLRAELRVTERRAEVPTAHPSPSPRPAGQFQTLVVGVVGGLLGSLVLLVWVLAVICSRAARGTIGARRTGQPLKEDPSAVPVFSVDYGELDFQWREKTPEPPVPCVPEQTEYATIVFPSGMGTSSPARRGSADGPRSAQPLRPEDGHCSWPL
# Procedure: as §1
Binder,binding result (4-1BB),binding result (LAG3),binding result (PD1)
"DVD2569 (bispecific antibody, Four-chain DVD-Ig; also called DVD2569H/DVD2569L; LAG3/41BB DVD-Ig) VH: QVQLQQWGAGLLKPSETLSLTCAVYGGSFSDYYWNWIRQPPGKGLEWIGEINHNGNTNSNPSLKSRVTLSLDTSKNQFSLKLRSVTAADTAVYYCAFGYSDYEYNWFDPWGQGTLVTVSSASTKGPQVQLQQWGAGLLKPSETLSLTCAVYGGSFSGYYWSWIRQSPEKGLEWIGEINHGGYVTYNPSLESRVTISVDTSKNQFSLKLSSVTAADTAVYYCARDYGPGNYDWYFDLWGRGTLVTVSS VL: EIVLTQSPATLSLSPGERATLSCRASQSISSYLAWYQQKPGQAPRLLIYDASNRATGIPARFSGSGSGTDFTLTISSLEPEDFAVYYCQQRSNWPLTFGQGTNLEIKRTVAAPEIVLTQSPATLSLSPGERATLSCRASQSVSSYLAWYQQKPGQAPRLLIYDASNRATGIPARFSGSGSGTDFTLTISSLEPEDFAVYYCQQRSNWPPALTFGGGTKVEIKR",binds,binds,–
"DVD2570 (bispecific antibody, Four-chain DVD-Ig; also called DVD2570H/DVD2570L) VH: QVQLQQWGAGLLKPSETLSLTCAVYGGSFSDYYWNWIRQPPGKGLEWIGEINHNGNTNSNPSLKSRVTLSLDTSKNQFSLKLRSVTAADTAVYYCAFGYSDYEYNWFDPWGQGTLVTVSSASTKGPSVFPLAPQVQLQQWGAGLLKPSETLSLTCAVYGGSFSGYYWSWIRQSPEKGLEWIGEINHGGYVTYNPSLESRVTISVDTSKNQFSLKLSSVTAADTAVYYCARDYGPGNYDWYFDLWGRGTLVTVSS VL: EIVLTQSPATLSLSPGERATLSCRASQSISSYLAWYQQKPGQAPRLLIYDASNRATGIPARFSGSGSGTDFTLTISSLEPEDFAVYYCQQRSNWPLTFGQGTNLEIKRTVAAPEIVLTQSPATLSLSPGERATLSCRASQSVSSYLAWYQQKPGQAPRLLIYDASNRATGIPARFSGSGSGTDFTLTISSLEPEDFAVYYCQQRSNWPPALTFGGGTKVEIKR",binds,binds,–
"DVD2567 (bispecific antibody, Four-chain DVD-Ig; also called DVD2567H/DVD2567L; 41BB/LAG3 DVD-Ig) VH: QVQLQQWGAGLLKPSETLSLTCAVYGGSFSGYYWSWIRQSPEKGLEWIGEINHGGYVTYNPSLESRVTISVDTSKNQFSLKLSSVTAADTAVYYCARDYGPGNYDWYFDLWGRGTLVTVSSASTKGPQVQLQQWGAGLLKPSETLSLTCAVYGGSFSDYYWNWIRQPPGKGLEWIGEINHNGNTNSNPSLKSRVTLSLDTSKNQFSLKLRSVTAADTAVYYCAFGYSDYEYNWFDPWGQGTLVTVSS VL: EIVLTQSPATLSLSPGERATLSCRASQSVSSYLAWYQQKPGQAPRLLIYDASNRATGIPARFSGSGSGTDFTLTISSLEPEDFAVYYCQQRSNWPPALTFGGGTKVEIKRTVAAPEIVLTQSPATLSLSPGERATLSCRASQSISSYLAWYQQKPGQAPRLLIYDASNRATGIPARFSGSGSGTDFTLTISSLEPEDFAVYYCQQRSNWPLTFGQGTNLEIKR",binds,binds,–
"DVD2568 (bispecific antibody, Four-chain DVD-Ig; also called DVD2568H/DVD2568L; 41BB/LAG3 DVD-Ig) VH: QVQLQQWGAGLLKPSETLSLTCAVYGGSFSGYYWSWIRQSPEKGLEWIGEINHGGYVTYNPSLESRVTISVDTSKNQFSLKLSSVTAADTAVYYCARDYGPGNYDWYFDLWGRGTLVTVSSASTKGPSVFPLAPQVQLQQWGAGLLKPSETLSLTCAVYGGSFSDYYWNWIRQPPGKGLEWIGEINHNGNTNSNPSLKSRVTLSLDTSKNQFSLKLRSVTAADTAVYYCAFGYSDYEYNWFDPWGQGTLVTVSS VL: EIVLTQSPATLSLSPGERATLSCRASQSVSSYLAWYQQKPGQAPRLLIYDASNRATGIPARFSGSGSGTDFTLTISSLEPEDFAVYYCQQRSNWPPALTFGGGTKVEIKRTVAAPEIVLTQSPATLSLSPGERATLSCRASQSISSYLAWYQQKPGQAPRLLIYDASNRATGIPARFSGSGSGTDFTLTISSLEPEDFAVYYCQQRSNWPLTFGQGTNLEIKR",binds,binds,–

# Second part, the binder after the results:
binding result (4-1BB),binding result (LAG3),binding result (PD1),Binder
–,–,binds,"DVD2555 (bispecific antibody, Four-chain DVD-Ig; also called DVD2555H/DVD2555L; PD1/LAG3 DVD-Ig) VH: QVQLVESGGGVVQPGRSLRLDCKASGITFSNSGMHWVRQAPGKGLEWVAVIWYDGSKRYYADSVKGRFTISRDNSKNTLFLQMNSLRAEDTAVYYCATNDDYWGQGTLVTVSSASTKGPQVQLQQWGAGLLKPSETLSLTCAVYGGSFSDYYWNWIRQPPGKGLEWIGEINHNGNTNSNPSLKSRVTLSLDTSKNQFSLKLRSVTAADTAVYYCAFGYSDYEYNWFDPWGQGTLVTVSS VL: EIVLTQSPATLSLSPGERATLSCRASQSVSSYLAWYQQKPGQAPRLLIYDASNRATGIPARFSGSGSGTDFTLTISSLEPEDFAVYYCQQSSNWPRTFGQGTKVEIKRTVAAPEIVLTQSPATLSLSPGERATLSCRASQSISSYLAWYQQKPGQAPRLLIYDASNRATGIPARFSGSGSGTDFTLTISSLEPEDFAVYYCQQRSNWPLTFGQGTNLEIKR"
–,–,binds,"DVD2557 (bispecific antibody, Four-chain DVD-Ig; also called DVD2557H/DVD2557L; LAG3/PD1 DVD-Ig) VH: QVQLQQWGAGLLKPSETLSLTCAVYGGSFSDYYWNWIRQPPGKGLEWIGEINHNGNTNSNPSLKSRVTLSLDTSKNQFSLKLRSVTAADTAVYYCAFGYSDYEYNWFDPWGQGTLVTVSSASTKGPQVQLVESGGGVVQPGRSLRLDCKASGITFSNSGMHWVRQAPGKGLEWVAVIWYDGSKRYYADSVKGRFTISRDNSKNTLFLQMNSLRAEDTAVYYCATNDDYWGQGTLVTVSS VL: EIVLTQSPATLSLSPGERATLSCRASQSISSYLAWYQQKPGQAPRLLIYDASNRATGIPARFSGSGSGTDFTLTISSLEPEDFAVYYCQQRSNWPLTFGQGTNLEIKRTVAAPEIVLTQSPATLSLSPGERATLSCRASQSVSSYLAWYQQKPGQAPRLLIYDASNRATGIPARFSGSGSGTDFTLTISSLEPEDFAVYYCQQSSNWPRTFGQGTKVEIKR"
–,–,binds,"DVD2556 (bispecific antibody, Four-chain DVD-Ig; also called DVD2556H/DVD2556L; PD1/LAG3 DVD-Ig) VH: QVQLVESGGGVVQPGRSLRLDCKASGITFSNSGMHWVRQAPGKGLEWVAVIWYDGSKRYYADSVKGRFTISRDNSKNTLFLQMNSLRAEDTAVYYCATNDDYWGQGTLVTVSSASTKGPSVFPLAPQVQLQQWGAGLLKPSETLSLTCAVYGGSFSDYYWNWIRQPPGKGLEWIGEINHNGNTNSNPSLKSRVTLSLDTSKNQFSLKLRSVTAADTAVYYCAFGYSDYEYNWFDPWGQGTLVTVSS VL: EIVLTQSPATLSLSPGERATLSCRASQSVSSYLAWYQQKPGQAPRLLIYDASNRATGIPARFSGSGSGTDFTLTISSLEPEDFAVYYCQQSSNWPRTFGQGTKVEIKRTVAAPEIVLTQSPATLSLSPGERATLSCRASQSISSYLAWYQQKPGQAPRLLIYDASNRATGIPARFSGSGSGTDFTLTISSLEPEDFAVYYCQQRSNWPLTFGQGTNLEIKR"
